Test results reported in paper PMC6395885.

What was measured:
[1] = target: protein kinase A (PKA) regulatory subunit RI (human (endogenous in HPAEC)) (UniProt P10644); experiment: non-reducing SDS-PAGE with Western blot
[2] = target: phosphorylated cAMP response element-binding protein (CREB) (human (endogenous in HPAEC)); experiment: co-IP
phosphorylated cAMP response element-binding protein (CREB) (human (endogenous in HPAEC)), sequence (P16220 whole entry): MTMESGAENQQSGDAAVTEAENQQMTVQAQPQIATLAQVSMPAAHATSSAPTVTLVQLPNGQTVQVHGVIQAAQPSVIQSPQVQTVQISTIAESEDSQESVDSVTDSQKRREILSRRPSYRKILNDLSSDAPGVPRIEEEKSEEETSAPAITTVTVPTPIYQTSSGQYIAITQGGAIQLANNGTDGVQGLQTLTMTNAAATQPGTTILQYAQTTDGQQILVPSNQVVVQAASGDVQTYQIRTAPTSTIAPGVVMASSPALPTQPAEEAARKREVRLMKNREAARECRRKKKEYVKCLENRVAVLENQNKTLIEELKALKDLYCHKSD

Row | Substance | fold change of the dimer band, 100 µM H2O2 against 0 µM H2O2 [1] | fold change of co-precipitated Ref-1, hypoxia against normoxia [2]
1 | protein kinase A (PKA) regulatory subunit RI (from UniProt P10644 1-381) (natural protein) | 3.3 fold | –
2 | redox factor 1 (Ref-1) (from UniProt P27695 1-318) (natural protein) | – | 1.81 fold
